Like-named read-outs stand apart in the source and are kept apart here. Values belong to the molecule of their own block, whether it stands above or below them.
B1: Ec Pch2^EQ (E159Q), purified hexamer (enzyme, E. coli MS115-1, UniProt D7Y2H4 1-311, looked up)
chain: MNVKPSLDELFERRINFPDFEPQERLARLVGLDEHKDRLSKILGLLVNPYGIQEWAKKYHPDARAAVDTVLRRPPLVVLAGDVGSGKTELAETIGDAVARQEDIDITLYPLSLATRGQGRVGEMTQLVSAAFDYTIEAADKLKNTNGKARGAVLLLIDQADALAQSRENAQMHHEDRAGVNAFIRGIDRIANQKLPAAVLMCTNRLKALDPAVQRRAAEILTFSRPNDEQRHYLLHSKLTGLGLNSTAVEELVRLTGPRDPNSPGFTFSDITQRLIPSIILAAYPYNAVSVHSALQVVNKMTPTPAFIDRQ

Experiments:
[1] = target: Pa CdnD (purified, in complexes with HORMA proteins) (P. aeruginosa ATCC27853) (UniProt P0DTF7); experiment: SEC-MALS
Sequence of Pa CdnD (purified, in complexes with HORMA proteins) (P. aeruginosa ATCC27853) (P0DTF7 whole entry, one chain of several): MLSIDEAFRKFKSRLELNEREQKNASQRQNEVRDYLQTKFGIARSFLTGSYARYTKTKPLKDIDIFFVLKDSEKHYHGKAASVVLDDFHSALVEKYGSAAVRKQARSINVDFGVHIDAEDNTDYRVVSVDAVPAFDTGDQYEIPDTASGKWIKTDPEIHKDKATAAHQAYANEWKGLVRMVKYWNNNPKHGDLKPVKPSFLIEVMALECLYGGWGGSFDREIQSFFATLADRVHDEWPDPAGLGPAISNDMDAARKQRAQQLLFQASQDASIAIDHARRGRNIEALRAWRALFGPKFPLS

[2] = target: Pa HORMA2, untagged, coexpressed (P. aeruginosa ATCC27853); experiment: SEC-MALS
Sequence of Pa HORMA2, untagged, coexpressed (P. aeruginosa ATCC27853) (P0DTF6 whole entry): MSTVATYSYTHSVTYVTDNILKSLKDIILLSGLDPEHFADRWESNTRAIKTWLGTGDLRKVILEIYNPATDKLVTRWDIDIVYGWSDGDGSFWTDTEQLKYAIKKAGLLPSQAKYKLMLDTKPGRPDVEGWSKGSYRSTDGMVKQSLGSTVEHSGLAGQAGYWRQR

[3] = target: Rhizobiales sp. Pch2 (Rhizobiales sp.); experiment: crystal structure
SEC-MALS = target: the molecule itself; experiment: SEC-MALS
[4] = target: T1, Ec CdnC:HORMA complex (purified) (E. coli MS115-1, UniProt D7Y2H2 1-321; D7Y2H3 1-172); experiment: SEC-MALS
T1 sequence (looked up) 1: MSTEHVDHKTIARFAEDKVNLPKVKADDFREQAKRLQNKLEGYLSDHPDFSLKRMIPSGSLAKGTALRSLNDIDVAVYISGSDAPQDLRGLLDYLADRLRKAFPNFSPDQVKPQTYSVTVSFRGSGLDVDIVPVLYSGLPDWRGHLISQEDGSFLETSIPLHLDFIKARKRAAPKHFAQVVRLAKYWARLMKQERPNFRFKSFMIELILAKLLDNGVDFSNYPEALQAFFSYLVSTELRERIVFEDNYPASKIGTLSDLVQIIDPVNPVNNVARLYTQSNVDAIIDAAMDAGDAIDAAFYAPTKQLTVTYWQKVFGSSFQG
T1 sequence (looked up) 2: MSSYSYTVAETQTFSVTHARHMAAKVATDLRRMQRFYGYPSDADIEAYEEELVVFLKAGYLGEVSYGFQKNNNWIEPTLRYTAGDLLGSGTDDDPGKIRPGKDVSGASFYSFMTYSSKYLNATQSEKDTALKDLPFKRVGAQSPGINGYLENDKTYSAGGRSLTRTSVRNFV

[5] = target: T2, Ec CdnC (purified, coexpressed with His6-HORMA) (E. coli MS115-1, UniProt D7Y2H2 1-321); experiment: SEC-MALS
T2 sequence (looked up): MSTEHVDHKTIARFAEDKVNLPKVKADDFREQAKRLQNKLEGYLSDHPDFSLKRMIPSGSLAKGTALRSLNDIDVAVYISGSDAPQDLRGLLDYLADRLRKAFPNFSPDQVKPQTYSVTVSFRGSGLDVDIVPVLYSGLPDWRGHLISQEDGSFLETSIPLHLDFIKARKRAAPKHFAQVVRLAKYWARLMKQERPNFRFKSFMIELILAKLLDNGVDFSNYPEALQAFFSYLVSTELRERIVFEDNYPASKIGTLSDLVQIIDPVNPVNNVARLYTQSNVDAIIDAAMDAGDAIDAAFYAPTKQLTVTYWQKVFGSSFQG

[6] = target: B1; experiment: crystal structure

Molecule: Pa HORMA1 (purified, SEC-MALS samples) (natural protein)
stoichiometry N ([1]; scale: CdnD per HORMA1 in the 2:1:1 CdnD:HORMA1:HORMA2 complex): 2
stoichiometry N (HORMA1:HORMA2) [2]: 1
stoichiometry N ([2]; scale: HORMA1 per HORMA2 in the 2:1:1 CdnD:HORMA1:HORMA2 complex): 1

stoichiometry N [3]: 6
Molecule: Rhizobiales sp. Pch2 (enzyme)

Molecule: Pa HORMA2, untagged, coexpressed (natural protein)
stoichiometry N [1]: 1 CdnD:HORMA2
stoichiometry N ([1]; scale: CdnD per HORMA2 in the 2:1:1 CdnD:HORMA1:HORMA2 complex): 2

Molecule: B1
stoichiometry N (SEC-MALS): 6
stoichiometry N [4]: 6 Pch2^EQ chains per CdnC:HORMA

stoichiometry N [5]: 1 CdnC:HORMA
binding result [6]: binds
B2: Ec HORMA (purified, coexpressed with CdnC) (natural protein, E. coli MS115-1, UniProt D7Y2H3 1-172, looked up)
chain: MSSYSYTVAETQTFSVTHARHMAAKVATDLRRMQRFYGYPSDADIEAYEEELVVFLKAGYLGEVSYGFQKNNNWIEPTLRYTAGDLLGSGTDDDPGKIRPGKDVSGASFYSFMTYSSKYLNATQSEKDTALKDLPFKRVGAQSPGINGYLENDKTYSAGGRSLTRTSVRNFV
